Legend:
[1] = molecular target: T1, monoclonal antibody SM3 (secreted by the hybridoma HSM3, ECACC accession no. 87010701); experiment: inhibition ELISA: SM3 at 1 ug/ml incubated with increasing peptide, binding to the fusion protein with seven MUC1 tandem repeats
T1 construct: The general ELISA method detects it with goat anti-mouse (Fc specific) conjugate; also called SM3 antibody

[2] = molecular target: T1, monoclonal antibody SM3 (secreted by …); experiment: inhibition ELISA of SM3 (1 ug/ml) binding to the fusion protein with seven MUC1 tandem repeats

T1 sequence (VH, as listed by the source limits assumed, chain 1 of 2): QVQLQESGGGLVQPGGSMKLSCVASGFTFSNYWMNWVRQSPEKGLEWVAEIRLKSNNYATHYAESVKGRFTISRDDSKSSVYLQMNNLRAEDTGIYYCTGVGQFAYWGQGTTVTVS
T1 sequence (VL, as listed by the source limits assumed, chain 2 of 2): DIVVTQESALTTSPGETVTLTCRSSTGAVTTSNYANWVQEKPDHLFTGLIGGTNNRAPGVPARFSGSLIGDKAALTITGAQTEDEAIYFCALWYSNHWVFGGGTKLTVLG

Binder	Apparent Ka [1] [µM]	IC50 [1] [µg/mL]	binding result [2]
TSAPDTRPAPGST (Non-glycosylated peptide; also called MUCl peptide; MUCl peptide antigen) [MUC1 peptide Thr-Ser-Ala-Pro-Asp-Thr-Arg-Pro-Ala-Pro-Gly-Ser-Thr ("the crystal peptide")]	~24	~30	
ARPTGTSDPTPAS			no binding (tested: approximately 30μg/ml)
